Here are results for one molecule from US20040002450A1, “Y17 - isolated molecules comprising epitopes containing sulfated moieties, antibodies to such epitopes, and uses thereof” (priority 2000, published 2004).

One assay relates to washed platelets. The assay can be described thus: Ristocetin-induced agglutination of washed platelets after scFv preincubation. Type of assay: cell-based, human. To be noted: for % inhibition / % agglutination: washed platelets; for % inhibition: ristocetin; for % agglutination: ristocetin = 100%. Here is the method:
Aggregation is determined in PRP due to the presence of thrombotic agents, while agglutination is determined in washed platelets. The effect of Y1 (scFv) on agglutination of washed platelets was tested at various concentrations of Y1. Platelets were pre-incubated with Y1 scFv, Y17 scFv, Y16-scFv, or a control TM-1 scFv for 4 min at 37° C. before being exposed to ristocetin, an inducer of platelet agglutination and aggregation.
Platelet concentrate in acid-citrate-dextrose (ACD) was obtained from a blood bank, platelets were isolated, washed once in buffer containing ACD and saline in a ratio of 1:7. The platelets were centrifuged at 800 g for 10 min after each wash and were resuspended in Tyrodes solution (2 mM MgCl2, 137 mM NaCl, 2.68 mM KCl, 3 mM NaH2PO4, 0.1% glucose, 5 mM Hepes and 0.35% albumin, pH 7.35) and count the number of cells.
For platelet aggregation studies, platelet rich plasma (PRP) and washed platelets were stirred at 500 rpm at 37° C. in whole blood Lumiaggregometer (Chronolog, Havertown, Pa.). The difference in light transmission through the platelet suspension and suspending medium was taken as 100% aggregation. The effect of Y1 on platelet aggregation was evaluated by addition of different concentration of Y1 before the addition of agonist, and the effect was recorded for four minutes.
The effect of Y17-scFv on vWF-dependent agglutination of platelets was tested at different concentrations of Y17.

The next assay addresses T1, glycocalicin (Homo sapiens, UniProt P07359).
T1 construct: GC, amino acid 1 to amino acid 493 of GPIbα; made in house; host or cells: E. coli BL21 (DE3), total cell lysate
The experiment in a line: Western blot on natural versus E. coli recombinant glycocalicin. Type of assay: binding. Here is the method:
The DNA fragment encoding for glycocalicin (GC, amino acid 1 to amino acid 493 of GPIbα) was cloned into an IPTG inducible prokaryotic vector cassette. E. coli (BL21 DE3) cells harboring the newly constructed plasmid were grown at 37° C. to O.D. 0.7-0.8, than at 37° C. for 3 hours for in the presence of IPTG for induction
SDS-polyacrylamide gel loaded either with semi-purified human platelet derived glycocalicin (“GC”) or with E. coli cell lysates (“total”) derived from induced and non-induced cells were analyzed. Western blot analysis was performed with biotinylated Y1-scFv, polyclonal rabbit anti-human glycocalicin antibody, commercially available mouse anti-human CD42 monoclonal antibody (SZ2 Immunotech, PM640 Serotec, HIP 1 Pharmigen, AN51 DAKO), and polyclonal antibody against the N-terminus of GPIbα (Sc-7071, Santa Cruz).

The subject of assay [1] is platelet GPIbα. The assay can be described thus: Western blot/FACS of endoprotease-cleaved platelet GPIbα and glycocalicin. The class given is binding, human. To be noted: immunoblots and FACS. An excerpt:
(§1) Immunoblotting and endoprotease cleavage techniques were used to identify the epitope for Y1 on the surface membrane of platelets.
(§2) The enzyme O-Sialoglycoprotein endoprotease from Pasteurella haemolytica (Cedarlan CLE 100) selectively cleaves human platelet GPIb and specifically cleaves only proteins containing sialylated, O-linked glycans. […] This enzyme has been reported to cleave GPIb, which is heavily O-glycosylated, but not GPIIb-IIIa or other receptors on platelets. GPIbα was digested with O-Sialoglycoprotein endoprotease in order to further establish the binding of Y1 to the molecule.
(§3) Mocarhagin [Sigma L4515a] is a cobra venom metalloproteinase that cleaves platelet GPIbα specifically at a single site between residues glu-282 and asp-283, thereby generating two stable products: a ˜45-kDa N-terminal fragment (His1-Glu282), which is released into the supernatant, and a membrane-bound ˜95 kDa C-terminal fragment.
(§4) Cathepsin G (Sigma C4428), a neutrophil serine protease, cleaves glycocalicin at a first cleavage site between residues Leu-275 and Tyr-276 and at a second cleavage site between residues Val-296 and Lys-297. Cathepsin G treatment of glycocalicin generates two N-terminal fragments: a small N-terminal 42 kDa fragment (His1-Leu275), a large N-terminal 45 kDa N-terminal fragment (His1-Val-296), and corresponding ˜95 kDa C-terminal fragments. (FIG. 1).
(§5) For mocarhagin digestion, 10^8 washed platelets in TS buffer (0.01 M Tris, 0.15 M sodium chloride, pH 7.4) containing 1 mM calcium chloride were treated with 12 μg/ml mocarhagin (final concentration) for 1 hour at 22° C. and digestion was stopped by adding EDTA to 0.01 M.
(§6) 10^6 platelets in 0.1 M Tris buffer pH 7.4 containing 0.2% albumin and protease inhibitors (10 μM leupeptin, 0.24 mM PMSF) was incubated with 0.14 mg/ml O-Sialoglycoprotein endoprotease (final concentration) for 45 min at 37° C. and digestion was stopped by adding sample buffer and boiling. The sample buffer used contained 3% SDS, 12% glycerol, 50 mM Tris HCl, 2% β-mercaptoethanol, and 0.03% bromphenol blue.
(§7) For mocarhagin digestion, glycocalicin in TS buffer containing 1 mM calcium chloride was incubated with 10 μg/ml mocarhagin (final concentration) for 1 hour at 22° C. and digestion was stopped by adding EDTA to 0.01 M.
(§8) For cathepsin G digestion, glycocalicin in TS buffer containing 1 mM calcium chloride was incubated with 3.4 μg/ml cathepsin G (final concentration) for 4 hour at 22° C. and digestion was stopped by adding PMSF to 1 mM.

Assay [2] has as its target T2, platelet GPIbα (Homo sapiens, UniProt P07359).
T2 construct: endogenous in cells; host or cells: washed human platelets (blood-bank platelet concentrate)
The assay is described as above. The class given is binding.
Excerpt: as §1, §2, §3, §4, §5, §6, §7, §8

B1: Y1 scFv: fully human scFv clone binding platelets and myelogenous leukemia cells; SEQ ID NO: 25, heavy chain CDR3 SEQ ID NO: 8 (protein, listed as Homo sapiens)
scFv: MKYLLPTAAAGLLLLAAQPAMAEVQLVESGGGVVRPGGSLRLSCAASGFTFDDYGMSWVRQAPGKGLEWVSGINWNGGSTGYADSVKGRFTISRDNAKNSLYLQMNSLRAEDTAVYYCARMRAPVIWGQGTLVTVSRGGGGSGGGGSGGGGSSELTQDPAVSVALGQTVRITCQGDSLRSYYASWYQQKPGQAPVLVIYGKNNRPSGIPDRFSGSSSGNTASLTITGAQAEDEADYYCNSRDSSGNHVVFGGGTKLTVLGAAAEQKLISEEDLNGAA
In the case of B1, the “effect on ristocetin-induced agglutination of washed platelets (in words)” value in the assay with washed platelets (4 μg/ml) was “No inhibition”; with washed platelets (12.5 μg/ml) it was “only partial inhibition”; in the assay on washed platelets (25 μg/ml), “inhibited agglutination”. For the same molecule, the “% inhibition” value was found to be 8% with washed platelets (scFv 4 μg/ml), 33% in the assay on washed platelets (scFv 12.5 μg/ml) and 77% in the assay on washed platelets (scFv 25 μg/ml). The “% agglutination” value with washed platelets (scFv 4 μg/ml) came to 92%; in the assay with washed platelets (scFv 12.5 μg/ml), 67%; in the assay with washed platelets (scFv 25 μg/ml) it was 23%. Also, the “recognition of natural human platelet derived and bacterial recombinant glycocalicin” value in the assay with glycocalicin is recorded as “recognized the natural human-derived glycocalicin, but did not recognize the bacterial derived recombinant platelet glycocalicin”. The “binding to washed platelets after O-Sialoglycoprotein endoprotease” value with platelet GPIbα [1] is recorded as “abolishes binding”. In addition, the “binding to cathepsin G fragments of glycocalicin” value in the assay with platelet GPIbα [2] (Western blot) is recorded as “bound to the larger N-terminal fragment (His 1-Val-296), but not to the smaller N-terminal fragment (His1-Leu275)”. Further, the “binding after mocarhagin treatment of washed platelets” value in the assay with platelet GPIbα [2] (Western blot of platelet lysates) is recorded as “binding of Y1 to the N-terminal ˜45 kDa tryptic fragment”.
